Assay results reported in patent US20210269552A1 (GO THERAPEUTICS, published 2021).
Where a chain is given by its changes, count along the chain named. Values belong to the molecule of their own block, whether it stands above or below them. No end group written: not given here.

Tests used:
[1] = biological target: T1, MUC1 alanine library glycopeptide 9 (human, GalNAc-Serine / GalNAc-Threonine at the bold underlined positions of Table 10A (marking not preserved); the Thr-GalNAc at position 21 is replaced by alanine); assay: ELISA, peptide coated at 0.25 µg/ml, antibody supernatant; OD mutant peptide / OD wild type glycopeptide (SEQ ID NO:99)
T1 construct: Position 21 (Thr-GalNAc) replaced by alanine
T1 peptide: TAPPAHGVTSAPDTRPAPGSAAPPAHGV
Procedure: (§1) Glycopeptides and relevant controls were diluted to 0.25 μg/ml in 0.2 M bicarbonate buffer pH 9.8 and 100 μl was plated onto each well of a high binding ELISA plate. Plates were then incubated overnight at 4° C. After discarding the coating buffer, the plate was blocked with 300 μl per well of blocking buffer (2.5% BSA in 1×PBS) for 1 hr at room temperature. Blocking buffer was then discarded, and 100 μl per well of antibody supernatant for each of 5E5, 1AG, and 4AG (diluted in blocking buffer) was added and incubated for 1 hr at room temperature. Antibody supernatant dilutions were previously optimized for each antibody (data not shown). Biotinylated Villa Villosa lectin (100 μl per well of 1 μg/ml in blocking buffer) was added to the plate as a control to detect the presence of GalNAc modified residues on the peptide. Plates were washed 3 times with 300 μl per well 1×TBS/0.05% Tween-20 (TBST). The secondary antibody Goat-anti mouse IgG (H+L)-HRP was diluted 1/5000 in blocking buffer and 100 μl of the diluted antibody was added per well and incubated on the plate for 1 hr at room temperature. Streptavidin-HRP was diluted 1/3000 in blocking buffer and 100 μl of the diluted streptavidin-HRP was added to wells containing the biotinylated lectin. Following secondary incubation, the plate was washed 4 times with 300 μl of TBST per well and then developed with 75 μl of room temperature 1-Step TMB substrate. After 1 minute, color development was stopped using 75 μl 2 N sulfuric acid. The plate was then read at 450 nm using a plate reader (Molecular Device SpectraMax i3).

[2] = biological target: T2, MUC1 alanine library glycopeptide 8 (human, GalNAc-Serine / GalNAc-Threonine at the bold underlined positions of Table 10A (marking not preserved); the Ser-GalNAc at position 20 is replaced by alanine); assay: as above
T2 construct: Position 20 (Ser-GalNAc) replaced by alanine
T2 peptide: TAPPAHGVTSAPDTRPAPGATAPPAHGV
Procedure: as §1

[3] = biological target: T3, MUC1 alanine library glycopeptide 4 (human, GalNAc-Serine / GalNAc-Threonine at the bold underlined positions of Table 10A (marking not preserved)); assay: alanine-scan ELISA: peptides coated at 0.25 ug/ml, antibody supernatant, anti-mouse IgG-HRP; OD450 divided by OD450 on the wild-type peptide
T3 construct: Position 16 (P) replaced by alanine
T3 peptide: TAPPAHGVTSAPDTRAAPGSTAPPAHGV
Procedure: as §1

[4] = biological target: T4, MUC1 alanine library glycopeptide 3 (human, GalNAc-Serine / GalNAc-Threonine at the bold underlined positions of Table 10A (marking not preserved)); assay: as above
T4 construct: Position 15 (R) replaced by alanine
T4 peptide: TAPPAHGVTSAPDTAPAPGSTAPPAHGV
Procedure: as §1

[5] = biological target: T2, MUC1 alanine library glycopeptide 8; assay: as above
Procedure: as §1

[6] = biological target: T5, MUC1 alanine library glycopeptide 12 (human, GalNAc-Serine / GalNAc-Threonine at the bold underlined positions of Table 10A (marking not preserved)); assay: as above
T5 peptide: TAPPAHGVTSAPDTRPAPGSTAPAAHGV
Procedure: as §1

Irrelevant Glycopeptide = biological target: T6, Irrelevant Glycopeptide (GalNAc-Ser / GalNAc-Thr at the positions marked bold and underlined in Table 10B (the marking is lost in the text as given)); assay: as above
T6 peptide: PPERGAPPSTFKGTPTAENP
Procedure: as §1

1 = biological target: T7, 1 (GalNAc-Ser / GalNAc-Thr at the positions marked bold and underlined in Table 10A (the marking is lost in the text as given)); assay: as above
T7 construct: also called MUC1 alanine library glycopeptide 1; peptide 1
T7 peptide: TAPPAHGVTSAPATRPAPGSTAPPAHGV
Procedure: as §1

Negative = biological target: T8, Negative (none (non-glycosylated)); assay: as above
T8 construct: also called Negative Control
T8 peptide: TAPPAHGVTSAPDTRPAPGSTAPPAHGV
Procedure: as §1

2 = biological target: T9, 2 (GalNAc-Ser / GalNAc-Thr at the positions marked bold and underlined in Table 10A (the marking is lost in the text as given)); assay: as above
T9 construct: also called MUC1 alanine library glycopeptide 2; peptide 2
T9 peptide: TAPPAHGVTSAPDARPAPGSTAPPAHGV
Procedure: as §1

BSA [7] = biological target: T10, BSA (bovine, UniProt P02769); assay: indirect ELISA on BSA blocked control wells, hybridoma supernatant, anti-mouse IgG-HRP, OD 450 nm
T10 construct: commercial protein in control wells; also called bovine serum albumin
Procedure: (§2) ELISA plates were coated with MUC1 peptides titrated in 0.2 M bicarbonate buffer, pH 9.4 over night in concentrations ranging from 0.08 μg/ml to 10 μg/ml. BSA was used as a control/measure of background. The plates were then blocked with SuperBlock™ (Thermo Fisher) for 1 hr at room temperature. After plate washing, 1AG and 4AG hybridoma supernatants were incubated on the ELISA plate for 1 hour. The plates were then washed, and then incubated with secondary antibody (1/3000 Goat Anti-mouse IgG (H+L) HRP (abcam 62-6520)) for 1 hour. The plate was then washed and color was developed with 1-Step™ Ultra TMB (Thermo Fisher) for 2 minutes. Color development was then stopped with 2 N Sulfuric Acid. Absorbance at 450 nm was then measured.

[8] = biological target: T11, Glycosylated peptide RPAPGSTAPPAHGVT (Table 5, SPR) (human, also: GalNAc at sites not preserved); assay: SPR, Biacore T200, antibody on chip, peptide injected in single-cycle 6.25-100 nM, 25 C
T11 construct: Printed without biotin
T11 peptide: RPAPGSTAPPAHGVT
Procedure: Binding of the 1AG and 4AG antibodies to one glycysolated and one non-glycosylated peptide (Table 5) was assessed by surface plasmon resonance (SPR).
All SPR experiments were performed on a Biacore T200 with a CM5 sensor chip with 10,000 RU anti-mouse antibody on each channel (GE Healthcare) at 25° C. with HBS-P+ as running and sample buffer (10 mM HEPES pH 7.4, 150 mM NaCl, 0.05% Tween 20, and 1 mg/ml BSA) and 10 mM glycine, pH 1.7 as regeneration buffer.
The 1AG and 4AG antibodies were immobilized as a 30 μg/mL solution in 10 mM sodium acetate, pH 5.0 using standard amine coupling chemistry (EDC/NHS activation). Antibody capture was performed using a 10× dilution into reaction buffer for 7 to 10 minutes at 5 μL/min. Immobilization levels of 600 to 1000 RU were used. […] The dissociation was monitored for 5 minutes to 30 minutes.

[9] = biological target: T12, MUC1 alanine library glycopeptide 6 (human, GalNAc-Serine / GalNAc-Threonine at the bold underlined positions of Table 10A (marking not preserved)); assay: alanine-scan ELISA: peptides coated at 0.25 ug/ml, antibody supernatant, anti-mouse IgG-HRP; OD450 divided by OD450 on the wild-type peptide
T12 construct: Position 18 (P) replaced by alanine
T12 peptide: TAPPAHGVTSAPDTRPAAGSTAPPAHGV
Procedure: as §1

[10] = biological target: T13, MUC1 alanine library glycopeptide 10 (human, GalNAc-Serine / GalNAc-Threonine at the bold underlined positions of Table 10A (marking not preserved)); assay: as above
T13 construct: Position 22 (A) replaced by glycine
T13 peptide: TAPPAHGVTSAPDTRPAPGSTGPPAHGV
Procedure: as §1

[11] = biological target: T14, MUC1 alanine library glycopeptide 11 (human, GalNAc-Serine / GalNAc-Threonine at the bold underlined positions of Table 10A (marking not preserved)); assay: as above
T14 construct: Position 23 (P) replaced by alanine
T14 peptide: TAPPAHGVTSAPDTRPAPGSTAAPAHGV
Procedure: as §1

BSA [12] = biological target: T10, BSA; assay: indirect ELISA, BSA control wells drawn on the peptide axis, hybridoma supernatant, anti-mouse IgG-HRP, OD 450 nm
Procedure: as §2

T10 sequence (P02769 25-607 limits assumed): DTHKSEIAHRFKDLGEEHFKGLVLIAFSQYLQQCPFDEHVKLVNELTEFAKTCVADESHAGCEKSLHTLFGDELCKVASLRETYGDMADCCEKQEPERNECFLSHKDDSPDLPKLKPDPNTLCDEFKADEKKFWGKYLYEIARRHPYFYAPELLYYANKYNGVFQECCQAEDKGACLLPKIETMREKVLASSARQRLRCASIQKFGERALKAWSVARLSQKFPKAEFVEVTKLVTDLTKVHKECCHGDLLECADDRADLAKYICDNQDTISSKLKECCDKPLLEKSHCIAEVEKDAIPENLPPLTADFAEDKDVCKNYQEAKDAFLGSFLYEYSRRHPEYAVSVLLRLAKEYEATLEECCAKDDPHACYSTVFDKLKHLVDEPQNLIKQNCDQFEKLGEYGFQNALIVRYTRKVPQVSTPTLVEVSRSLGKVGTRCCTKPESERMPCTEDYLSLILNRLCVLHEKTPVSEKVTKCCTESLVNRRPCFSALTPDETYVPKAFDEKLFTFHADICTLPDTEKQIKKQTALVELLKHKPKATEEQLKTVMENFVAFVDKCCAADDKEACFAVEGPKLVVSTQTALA

percent binding compared to the wild type peptide [1]: 2.93% | percent binding compared to the wild type peptide [2]: 18%
Molecule: 5E5 (antibody)

binding result [3]: binds | binding result [4]: binds | binding result [6]: binds | binding result 1: binds | binding result 2: binds | binding result (BSA [7]): no binding | Kd [8]: 37.3 nM | koff [8]: 0.007 s⁻¹ | kon [8]: 179000 M⁻¹ s⁻¹ | percent binding compared to the wild type peptide [1]: 6.07% | percent binding compared to the wild type peptide [2]: 2.23%
B1: 1AG (antibody, V domains shown)
VH: EVKLLESGGGLVQPGGSLKLSCAASGFDFSRDWMSWVRQAPGKGLEWIGEINPDSSTKNYTPSLKDKFIISRDNAKNTLFLQMSSVRSEDTALYYCATSHYYGLFGYWGQGTLVTVSA
VL: DIVLTQSPASLTVSLGQRATISCRASKSVSTSGYSYMHWYQQKPGQPPKLLIYLASYLESGVPARFSGSGSGTDFTLNIHPVEEEDAATYYCQHSRELPRTFGGGTKLEIK
notes: Mouse monoclonal antibody from Balb/c hybridoma; Used as hybridoma supernatant in the ELISAs; also called mAb 1AG; antibody 1AG
binding result [5]: no binding (tested: 0.25 ug/ml coating peptide) | binding result (Irrelevant Glycopeptide): no binding (tested: 0.25 ug/ml coating peptide) | binding result (Negative): no binding (tested: 0.25 ug/ml coating peptide)

binding result [3]: binds | binding result [4]: binds | binding result [9]: binds | binding result [10]: binds | binding result [11]: binds | binding result [6]: binds | binding result 1: binds | binding result 2: binds | Kd [8]: 3.4 nM | koff [8]: 0.00093 s⁻¹ | kon [8]: 272000 M⁻¹ s⁻¹ | percent binding compared to the wild type peptide [1]: 14.6% | percent binding compared to the wild type peptide [2]: 1.63%
B2: 4AG (antibody, V domains shown)
VH: EVKLLESGGGLVQPGGSLKLSCVASGFDFSRYWMSWVRQAPGKGPEWIGEINPESNTMNYSPSLKEKFIISRDTAKNMLYLQMSKVRSEDTALYYCATSHHYGLFDYWGQGTLVTVSA
VL: B1 VL with T12A, S35N, M37I, Y91F, I110F
notes: Mouse monoclonal antibody from Balb/c hybridoma; Used as hybridoma supernatant in the ELISAs; also called mAb 4AG; antibody 4AG
binding result [5]: no binding (tested: 0.25 ug/ml coating peptide) | binding result (Irrelevant Glycopeptide): no binding (tested: 0.25 ug/ml coating peptide) | binding result (Negative): no binding (tested: 0.25 ug/ml coating peptide) | binding result (BSA [12]): no binding (tested: 10 ug/ml on the peptide axis)
